The Immune Epitope Database (IEDB)
pIC50: −log10 of the molar value.

Biological target: HLA-A*02:01
Assay: IEDB peptide-MHC binding, purified MHC/competitive/radioactivity; ≥ and ≤ were set here for values at or beyond the usual limits of such assays
Settings: source organism: Trypanosoma cruzi

Row | Sequence | pIC50
1 | FANNKFTLV | 6.94
2 | FVDYNFSLV | 8.96
3 | RLLPSLLLLL | 9.10
4 | FANYNFTLV | 9.33
5 | FLSHNFTLVF | 9.21
6 | RVSRPTTVV | 5.60
7 | GLLPSLLLLL | 8.51
8 | FANYNFTLL | 5.82
9 | FLSHDFTLV | 9.34
10 | IANYNFTLV | 4.53
11 | FVNYNFTLV | 9.60
12 | ELLRPTTLV | 5.62
13 | FVNHRFTLV | 6.52
14 | SLSHYFTLVF | 8.80
15 | FANHDFTLV | 7.00
16 | FANYKFTLV | 7.31
17 | LLGLWGLATA | 7.62
18 | FVSCDFTIV | 7.52
